What was measured:
[1] = biological target: T1, rhMer/Fc Chimera (recombinant human MERTK extracellular domain conjugated to an IgG Fc domain) (human, UniProt Q12866 21-505); test: SPR, avidity format: rhMer/Fc Chimera immobilised on CM5 chip, antibody as analyte, 1:1 fit
T1 construct: extracellular domain; also called hMER recombinant protein; Mer-Fc conjugate; not shown: IgG Fc domain
T1 sequence (looked up): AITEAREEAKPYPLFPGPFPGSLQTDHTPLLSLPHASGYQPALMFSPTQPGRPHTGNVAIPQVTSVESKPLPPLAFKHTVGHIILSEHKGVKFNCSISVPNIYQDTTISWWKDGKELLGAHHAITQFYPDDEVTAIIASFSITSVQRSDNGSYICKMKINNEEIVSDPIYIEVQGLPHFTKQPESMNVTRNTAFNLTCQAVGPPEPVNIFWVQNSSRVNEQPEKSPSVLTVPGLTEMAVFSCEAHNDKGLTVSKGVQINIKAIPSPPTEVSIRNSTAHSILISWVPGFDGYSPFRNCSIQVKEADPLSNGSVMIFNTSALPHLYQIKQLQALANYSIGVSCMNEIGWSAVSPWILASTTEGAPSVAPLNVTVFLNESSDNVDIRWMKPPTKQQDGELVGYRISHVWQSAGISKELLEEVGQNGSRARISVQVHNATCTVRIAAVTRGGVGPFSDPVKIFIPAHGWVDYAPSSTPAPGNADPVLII
Protocol: With respect to avidity and affinity measurements using SPR, the protocols below were used.
The activator was prepared with a mixture of 400 mM EDC and 100 mM NHS immediately prior to injection. The CM5 sensor chip was activated for 420 s with the mixture. […] The chip was deactivated by 1 M ethanolamine-HCl. […] 8 concentrations (0.3125, 0.625, 1.25, 2.5, 5, 10, 20 and 40 nM) of the antibodies and running buffer were injected at a flow rate of 30 μL/min for an association phase of 240 s, followed by 4800 s dissociation. 10 mM glycine pH 1.5 as regeneration buffer was injected following every dissociation phase. The chip was regenerated with 10 mM glycine pH 1.5. One surface channel without capturing ligand was used as control surface for reference subtraction. Final data of each interaction was deducted from reference channel and buffer channel data. […] A molecular weight of 150 kDa was used to calculate the molar concentration of the antibodies.

[2] = biological target: T2, murine MERTK extracellular domain conjugated to an IgG Fc domain (murine, UniProt Q60805 19-497); test: competition ELISA: soluble mMer-Fc (varied) equilibrated with z10, free z10 caught on plate-coated hMER
T2 construct: extracellular domain; also called mMER; not shown: IgG Fc domain
T2 sequence (looked up): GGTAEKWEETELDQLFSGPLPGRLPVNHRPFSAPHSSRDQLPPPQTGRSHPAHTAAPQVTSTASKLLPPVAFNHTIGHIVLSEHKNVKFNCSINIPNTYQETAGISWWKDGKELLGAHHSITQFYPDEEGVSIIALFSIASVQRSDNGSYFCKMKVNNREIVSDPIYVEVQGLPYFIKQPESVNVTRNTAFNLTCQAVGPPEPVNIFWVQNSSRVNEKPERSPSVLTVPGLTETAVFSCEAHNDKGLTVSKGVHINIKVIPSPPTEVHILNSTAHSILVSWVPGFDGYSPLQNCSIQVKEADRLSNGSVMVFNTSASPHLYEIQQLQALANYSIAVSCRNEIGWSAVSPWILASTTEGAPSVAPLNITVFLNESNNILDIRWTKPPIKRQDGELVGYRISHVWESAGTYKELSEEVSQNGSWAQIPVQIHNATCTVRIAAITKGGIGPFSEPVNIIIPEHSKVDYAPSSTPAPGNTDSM
Protocol: (§1) Plates were washed three times with PBS 0.1% Tween and blocked with 3% non-fat dry skim milk in PBS for 2 h.
(§2) During the saturation step, dilutions of the antigen hAxl (RnD Systems, 154-AL-100), hTyro3 (RnD Systems, 859-DK-100) or mMER (RnD Systems, 591-MR-100)] were prepared at 50 nM as the highest concentration, and serially diluted 1:1 to 0.098 nM in PBS. […] Then, the saturated plate was washed three times with PBS 0.1% Tween and the antigen-antibody mixture was added to the wells in duplicate and incubated for 1 h at room temperature. The plate was then washed three times with PBS 0.1% Tween and incubated with anti-human Alkaline Phosphatase antibody (Sigma, SAB 3701248) at a dilution of 1:3000 in PBS for 1 h at room temperature. After washing three times with PBS 0.1% Tween, 100 uL of Alkaline Phosphatase Yellow (pNPP) liquid substrate system (Sigma, P7998) was added in each well and incubated for 70 min at room temperature. Plates were read at 405 nm and at 570 nm, to correct plate inconsistencies, using Glomax Discover System from Promega The absorbance was plotted as a function of antigen concentration and the Kd was calculated using GraphPad Prism 7.0c.

[3] = biological target: T3, human Tyro3 extracellular domain (human, UniProt Q06418 41-429); test: competition ELISA: soluble hTyro3-Fc (varied) equilibrated with z10, free z10 caught on plate-coated hMER
T3 construct: extracellular domain; also called hTyro3
T3 sequence (looked up): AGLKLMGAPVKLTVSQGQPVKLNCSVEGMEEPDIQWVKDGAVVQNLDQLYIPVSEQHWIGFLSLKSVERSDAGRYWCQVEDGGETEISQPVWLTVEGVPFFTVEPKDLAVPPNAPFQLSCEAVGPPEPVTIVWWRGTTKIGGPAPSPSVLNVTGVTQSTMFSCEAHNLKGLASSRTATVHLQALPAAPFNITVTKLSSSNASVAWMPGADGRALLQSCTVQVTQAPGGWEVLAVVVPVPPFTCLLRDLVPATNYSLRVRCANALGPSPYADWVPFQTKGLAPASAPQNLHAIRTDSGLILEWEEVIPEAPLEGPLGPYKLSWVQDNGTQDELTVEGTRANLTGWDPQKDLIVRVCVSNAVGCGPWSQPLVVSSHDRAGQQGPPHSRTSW
Protocol: as §1, §2

B1: z10 antibody (antibody, human IgG1, kappa, V domains shown)
VH: QVQLVQSGAEVKKPGASVKVSCKASGYTFTNYGMNWVRQAPGQGLEWMGWINTYTGEPTYADDFKGRVTFTTDTSTSTAYMELRSLRSDDMAVYYCARKSTVVSRYFDVWGQGTTVTVSS
VL: DIQMTQSPSFLSASVGDRVTITCKASQDVGDAVTWYQQKPGKAPKLLIYWASTRHTGVPDRFSGSGSGTDFTLTISSLQPEDFATYYCQQYRSYPLTFGQGTKLEIKR
notes: also called MERTK (z10) antibody
- Kd [1]: 5.74 pM
- binding result [2]: no binding (tested: 50 nM)
- binding result [3]: no binding (tested: 50 nM)

From patent US20200291135A1 (INSPIRNA, published 2020)
